Test results as given in patent EP1275713A1.

Target: human TLR4 (human) (UniProt O00206)
Test: BIACORE 3000: TLR4-COS cells (1.7 × 10^5 cells/mL) premixed with 33 µg/mL sCD14(1-307)S286C for 20 minutes, injected over immobilized sCD14(1-356)/LPS

UniProt O00206, sequence (O00206 24-839): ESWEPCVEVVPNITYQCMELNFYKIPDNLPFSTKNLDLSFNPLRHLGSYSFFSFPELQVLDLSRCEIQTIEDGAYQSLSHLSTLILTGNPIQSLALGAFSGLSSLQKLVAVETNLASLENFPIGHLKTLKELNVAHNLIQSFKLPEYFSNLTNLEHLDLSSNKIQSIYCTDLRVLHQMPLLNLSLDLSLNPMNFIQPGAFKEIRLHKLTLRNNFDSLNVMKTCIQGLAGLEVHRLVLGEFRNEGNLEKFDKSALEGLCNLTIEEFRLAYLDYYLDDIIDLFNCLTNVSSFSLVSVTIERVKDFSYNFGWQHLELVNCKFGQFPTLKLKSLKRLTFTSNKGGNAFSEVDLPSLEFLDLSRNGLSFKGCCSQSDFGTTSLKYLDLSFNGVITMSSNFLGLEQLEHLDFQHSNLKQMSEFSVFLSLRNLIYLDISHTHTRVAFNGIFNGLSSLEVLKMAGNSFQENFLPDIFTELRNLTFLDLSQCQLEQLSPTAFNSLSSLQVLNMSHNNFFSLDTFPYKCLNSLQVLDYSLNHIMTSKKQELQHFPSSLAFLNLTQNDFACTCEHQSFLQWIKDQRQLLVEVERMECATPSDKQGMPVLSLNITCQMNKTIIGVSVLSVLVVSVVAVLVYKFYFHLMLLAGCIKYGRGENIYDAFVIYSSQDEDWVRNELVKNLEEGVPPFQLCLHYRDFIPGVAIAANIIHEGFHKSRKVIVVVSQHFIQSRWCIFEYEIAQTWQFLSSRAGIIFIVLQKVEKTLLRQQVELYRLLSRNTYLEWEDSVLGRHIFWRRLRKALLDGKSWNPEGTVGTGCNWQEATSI

- suppression of binding: 100%
B1: sCD14(1-307)S286C (receptor)
chain: TTPEPCELDDEDFRCVCNFSEPQPDWSEAFQCVSAVEVEIHAGGLNLEPFLKRVDADADPRQYADTVKALRVRRLTVGAAQVPAQLLVGALRVLAYSRLKELTLEDLKITGTMPPLPLEATGLALSSLRLRNVSWATGRSWLAELQQWLKPGLKVLSIAQAHSPAFSCEQVRAFPALTSLDLSDNPGLGERGLMAALCPHKFPAIQNLALRNTGMETPTGVCAALAAAGVQPHSLDLSHNSLRATVNPSAPRCMWSSALNSLNLSFAGLEQVPKGLPAKLRVLDLCCNRLNRAPQPDELPEVDNLTL
